Experimental data reported in article PMC5678113, “Substrate Specificity and Allosteric Regulation of a D-Lactate Dehydrogenase from a Unicellular Cyanobacterium are Altered by an Amino Acid Substitution” (Scientific Reports, 2017).

How the values were obtained:
Assay in all cases: NADH oxidation followed at A340
SyDdh (GST-SyDdh) [1] = target: T1, SyDdh (GST-SyDdh) (Synechocystis sp. PCC 6803, UniProt P74586); format: biochemical; conditions: for remaining activity at 2500 µM: read-out: % residual activity at 2.5 mM
T1 construct: gene ddh; Full ddh ORF, GST-tagged (tag kept, pGEX5X-1), expressed in E. coli DH5alpha, glutathione-Sepharose purified
T1 sequence (P74586 1-333): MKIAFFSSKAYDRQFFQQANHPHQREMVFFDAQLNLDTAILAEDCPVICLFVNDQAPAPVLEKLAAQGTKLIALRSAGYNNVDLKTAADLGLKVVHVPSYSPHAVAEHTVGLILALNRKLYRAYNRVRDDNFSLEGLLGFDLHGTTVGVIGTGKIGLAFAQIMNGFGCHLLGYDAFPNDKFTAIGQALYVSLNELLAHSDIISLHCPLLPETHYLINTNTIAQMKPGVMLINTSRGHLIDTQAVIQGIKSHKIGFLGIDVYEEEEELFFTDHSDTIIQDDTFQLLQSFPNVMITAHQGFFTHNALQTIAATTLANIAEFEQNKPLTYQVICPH

SyDdh (GST-SyDdh) [2] = target: T2, SyDdh (GST-SyDdh) (Synechocystis sp. PCC 6803, UniProt P74586, Q14E); format: biochemical; conditions: pH 7.5, 30 °C, 0.1 mM NADH, no Mg2+; substrate inhibition
T2 construct: gene ddh; Full ddh ORF, GST-tagged (tag kept, pGEX5X-1), expressed in E. coli DH5alpha, glutathione-Sepharose purified
Text: (§1) NADH oxidation followed at A340 on SyDdh (GST-SyDdh)

SyDdh (GST-SyDdh) [3] = target: T1, SyDdh (GST-SyDdh); format: biochemical; conditions: pH 7.5, 30 °C, 0.1 mM NADH, no Mg2+; substrate inhibition
Text: as §1

SyDdh (GST-SyDdh) [4] = target: T3, SyDdh (GST-SyDdh) (Synechocystis sp. PCC 6803, UniProt P74586, S234G); format: biochemical; conditions: pH 7.5, 30 °C, 0.1 mM NADH, no Mg2+; substrate inhibition
T3 construct: gene ddh; Full ddh ORF, GST-tagged (tag kept, pGEX5X-1), expressed in E. coli DH5alpha, glutathione-Sepharose purified
Text: as §1

[5] = substrate: NC(=O)C1=CN([C@@H]2O[C@H](COP(=O)(O)OP(=O)(O)OC[C@H]3O[C@@H](n4cnc5c(N)ncnc54)[C@H](O)[C@@H]3O)[C@@H](O)[C@H]2O)C=CC1; format: biochemical, Synechocystis sp. PCC 6803; conditions: pH 7.5, 30 °C, varied: cofactor
[6] = substrate: CC(=O)C(=O)O; format: biochemical, Synechocystis sp. PCC 6803; conditions: pH 7.5, 30 °C, 0.1 mM NADH, no Mg2+, Hill coefficient 2.51
[7] = substrate: O=C(O)CC(=O)C(=O)O; format: biochemical, Synechocystis sp. PCC 6803; conditions: pH 7.5, 30 °C, 0.1 mM NADH, no Mg2+
Text: as §1

[8] = substrate: CC(=O)C(=O)O; format: biochemical, Synechocystis sp. PCC 6803; conditions: pH 7.5, 30 °C, 0.1 mM NADH, no Mg2+
Text: as §1

Which remaining activity at 2500 µM (SyDdh (GST-SyDdh) [1]) does the source give for `Nc1ncnc2c1ncn2[C@@H]1O[C@H](COP(=O)(O)OP(=O)(O)OP(=O)(O)O)[C@@H](O)[C@H]1O` [ATP] here?
Its remaining activity at 2500 µM is 72%.

With `O=P(O)(O)OC[C@H]1OC(O)(COP(=O)(O)O)[C@@H](O)[C@@H]1O` (some centres unmarked) [FBP] as the molecule, how does the activity at 2500 µM (SyDdh (GST-SyDdh) [1]; read-out: % activity at 2.5 mM) read?
Its activity at 2500 µM is 134%.

How did the “K i” value (SyDdh (GST-SyDdh) [2]) turn out when `CC(=O)C(=O)O` [pyruvate] was run?
The value was 16.51 ± 5.98 mM.

`NC(=O)C(=O)O` [oxamate] was tested. Which remaining activity at 2500 µM (SyDdh (GST-SyDdh) [1]) did it give?
Its remaining activity at 2500 µM is 42%.

What does the source list for `O=C(O)CC(=O)C(=O)O` [oxaloacetate]?
K i (SyDdh (GST-SyDdh) [3]): 8.56 ± 3.39 mM; K i (SyDdh (GST-SyDdh) [4]): 5.74 ± 1.04 mM

B1: SyDdh (GST-SyDdh) (Synechocystis sp. PCC 6803 substr. Kazusa) (protein)
chain: MKIAFFSSKAYDRQFFQQANHPHQREMVFFDAQLNLDTAILAEDCPVICLFVNDQAPAPVLEKLAAQGTKLIALRSAGYNNVDLKTAADLGLKVVHVPSYSPHAVAEHTVGLILALNRKLYRAYNRVRDDNFSLEGLLGFDLHGTTVGVIGTGKIGLAFAQIMNGFGCHLLGYDAFPNDKFTAIGQALYVSLNELLAHSDIISLHCPLLPETHYLINTNTIAQMKPGVMLINTSRGHLIDTQAVIQGIKSHKIGFLGIDVYEEEEELFFTDHSDTIIQDDTFQLLQSFPNVMITAHQGFFTHNALQTIAATTLANIAEFEQNKPLTYQVICPH
notes: Full ddh ORF, GST-tagged (tag kept, pGEX5X-1), expressed in E. coli DH5alpha, glutathione-Sepharose purified
B1 was tested. Which K0.5 [5] did it give?
The K0.5 was 0.028 ± 0.002 mM.

And the kcat [5]?
Its kcat is 2.60 ± 0.25 s⁻¹.

What about the K0.5 [6] of the same molecule?
Its K0.5 is 0.38 ± 0.04 mM.

And the kcat [6]?
Its kcat is 2.71 ± 0.26 s⁻¹.

What about the kcat/Km [6] of the same molecule?
Its kcat/Km is 7140 ± 1150 M⁻¹ s⁻¹.

B2: SyDdh (GST-SyDdh) (Synechocystis sp. PCC 6803 substr. Kazusa; S234G) (protein)
chain: MKIAFFSSKAYDRQFFQQANHPHQREMVFFDAQLNLDTAILAEDCPVICLFVNDQAPAPVLEKLAAQGTKLIALRSAGYNNVDLKTAADLGLKVVHVPSYSPHAVAEHTVGLILALNRKLYRAYNRVRDDNFSLEGLLGFDLHGTTVGVIGTGKIGLAFAQIMNGFGCHLLGYDAFPNDKFTAIGQALYVSLNELLAHSDIISLHCPLLPETHYLINTNTIAQMKPGVMLINTGRGHLIDTQAVIQGIKSHKIGFLGIDVYEEEEELFFTDHSDTIIQDDTFQLLQSFPNVMITAHQGFFTHNALQTIAATTLANIAEFEQNKPLTYQVICPH
notes: as for B1
Which results are given for B2?
K0.5 ([7]; substrate-inhibition fit): 0.59 ± 0.05 mM; kcat ([7]; substrate-inhibition fit): 1.27 ± 0.24 s⁻¹; kcat/Km ([7]; substrate-inhibition fit): 2190 ± 520 M⁻¹ s⁻¹; K0.5 ([8]; Hill coefficient 1.64): 2.10 ± 0.18 mM; kcat ([8]; Hill coefficient 1.64): 1.71 ± 0.26 s⁻¹; kcat/Km ([8]; Hill coefficient 1.64): 820 ± 130 M⁻¹ s⁻¹

B3: SyDdh (GST-SyDdh) (Synechocystis sp. PCC 6803 substr. Kazusa; Q14E) (protein)
chain: MKIAFFSSKAYDREFFQQANHPHQREMVFFDAQLNLDTAILAEDCPVICLFVNDQAPAPVLEKLAAQGTKLIALRSAGYNNVDLKTAADLGLKVVHVPSYSPHAVAEHTVGLILALNRKLYRAYNRVRDDNFSLEGLLGFDLHGTTVGVIGTGKIGLAFAQIMNGFGCHLLGYDAFPNDKFTAIGQALYVSLNELLAHSDIISLHCPLLPETHYLINTNTIAQMKPGVMLINTSRGHLIDTQAVIQGIKSHKIGFLGIDVYEEEEELFFTDHSDTIIQDDTFQLLQSFPNVMITAHQGFFTHNALQTIAATTLANIAEFEQNKPLTYQVICPH
notes: as for B1
Which results are given for B3?
K0.5 ([7]; Hill coefficient 0.95): 1.71 ± 0.38 mM; kcat ([7]; Hill coefficient 0.95): 2.38 ± 0.1 s⁻¹; kcat/Km ([7]; Hill coefficient 0.95): 1460 ± 310 M⁻¹ s⁻¹; K0.5 ([8]; substrate-inhibition fit): 0.52 ± 0.10 mM; kcat ([8]; substrate-inhibition fit): 4.11 ± 0.71 s⁻¹; kcat/Km ([8]; substrate-inhibition fit): 7980 ± 350 M⁻¹ s⁻¹
